Results as given in patent US20250376539A1 (KIRA PHARMACEUTICALS SUZHOU, published 2025).

T1: recombinant human complement C2 (NP_000054.2), C-terminal 6His-tag, made in house (CHO cell expression) (human, UniProt P06681 21-752)
T1 construct: a linker before the tag is not described; also called human C2; Human C2
T1 sequence: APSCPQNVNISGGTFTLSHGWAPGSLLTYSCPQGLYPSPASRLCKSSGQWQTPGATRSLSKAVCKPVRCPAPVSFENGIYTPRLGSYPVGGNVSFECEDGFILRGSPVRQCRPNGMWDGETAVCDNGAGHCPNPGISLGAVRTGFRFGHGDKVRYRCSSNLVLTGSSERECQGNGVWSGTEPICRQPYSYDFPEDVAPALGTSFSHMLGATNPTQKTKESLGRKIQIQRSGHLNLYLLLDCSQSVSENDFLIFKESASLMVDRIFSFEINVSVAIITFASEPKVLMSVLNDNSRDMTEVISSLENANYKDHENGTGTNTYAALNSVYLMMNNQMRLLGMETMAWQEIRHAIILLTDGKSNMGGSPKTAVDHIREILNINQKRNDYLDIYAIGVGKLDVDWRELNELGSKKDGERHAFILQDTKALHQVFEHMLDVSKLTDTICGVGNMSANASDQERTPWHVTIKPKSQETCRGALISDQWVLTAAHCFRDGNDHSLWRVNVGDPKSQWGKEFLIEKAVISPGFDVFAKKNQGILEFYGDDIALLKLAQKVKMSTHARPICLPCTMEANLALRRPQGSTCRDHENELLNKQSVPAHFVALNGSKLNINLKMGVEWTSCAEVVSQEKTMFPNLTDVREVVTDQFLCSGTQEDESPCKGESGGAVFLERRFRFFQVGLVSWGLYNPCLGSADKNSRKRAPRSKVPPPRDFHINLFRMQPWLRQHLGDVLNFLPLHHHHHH


Key:
[1] = molecular target: T1, recombinant human complement C2 …; experiment: BLI (Gator); ratio of dissociation at pH 5.8 to pH 7.4
Experimental: (§1) The histidine mutant constructs in Table 4 were tested for their pH-dependent dissociation from human C2. Probe-immobilized anti-C2 antibodies were incubated with C2 at pH 7.4 for 600s, followed by a 600s dissociation period in K Buffer at pH 7.4 or pH 5.8. The data were processed and analyzed by the Gator evaluation software.

[2] = molecular target: T1, recombinant human complement C2 …; experiment: BLI (Gator), antibody on probe; 600 s association at pH 7.4, 600 s dissociation at pH 5.8
Experimental: as §1

[3] = molecular target: T1, recombinant human complement C2 …; experiment: BLI (Gator), antibody on probe; 600 s association at pH 7.4, 600 s dissociation at pH 7.4
Experimental: as §1

[4] = molecular target: T1, recombinant human complement C2 …; experiment: binding kinetics, neutral pH (BLI presumed)

| Fold dissociation pH 5.8/pH 7.4 [1] [fold] | Dissociation (%) pH 5.8 [2] [%] | Dissociation (%) pH 7.4 [3] [%] | Kd [4] [nM] | koff [4] [s⁻¹] | kon [4] [M⁻¹ s⁻¹] | Binder |
| --- | --- | --- | --- | --- | --- | --- |
| 6.6 | 51.3 | 7.74 | – | – | – | 3.2 H2-10 parental (antibody, V domains shown, Histidine mutant of 3.2) VH: EVQLLESGGGLVQPGGSLRLSCAASGFTFRHYAMSWVRQAPGKGLEWVSLISGSGASTHYADSVKGRFTISRDNSENMLYLQMNSLRAEDTAVYYCAKDSLAVAGSEYFQHWGQGTLVTVSS VL: SYVLTQAPSVSVAPGQTARITCGGNYFGGKSVHWYQQRPGQAPVLVVYDDSDRPSGIPERFSGSKSGNTATLAISRVEAGDEAAYYCQVYDTSSDHWVFGGGTKLTVL |
| 8.6 | 60 | 7 | – | – | – | 3.2 H2-10 × L3-7 (antibody, V domains shown, Histidine mutant of 3.2) VH: EVQLLESGGGLVQPGGSLRLSCAASGFTFRHYAMSWVRQAPGKGLEWVSLISGSGASTHYADSVKGRFTISRDNSENMLYLQMNSLRAEDTAVYYCAKDSLAVAGSEYFQHWGQGTLVTVSS VL: SYVLTQAPSVSVAPGQTARITCGGNYFGGKSVHWYQQRPGQAPVLVVYDDSDRPSGIPERFSGSKSGNTATLAISRVEAGDEAAYYCQVYDTSHDHWVFGGGTKLTVL |
| 11.1 | 56.5 | 5.1 | 0.33 | 9.39e-05 | 284000 | 3.2 H2-10 × L1-2 (antibody, V domains shown, Histidine mutant of 3.2) VH: EVQLLESGGGLVQPGGSLRLSCAASGFTFRHYAMSWVRQAPGKGLEWVSLISGSGASTHYADSVKGRFTISRDNSENMLYLQMNSLRAEDTAVYYCAKDSLAVAGSEYFQHWGQGTLVTVSS VL: SYVLTQAPSVSVAPGQTARITCGHNYFGGKSVHWYQQRPGQAPVLVVYDDSDRPSGIPERFSGSKSGNTATLAISRVEAGDEAAYYCQVYDTSSDHWVFGGGTKLTVL |
| 9.8 | 52.7 | 5.39 | – | – | – | 3.2 H2-10 × L2-7 (antibody, V domains shown, Histidine mutant of 3.2) VH: EVQLLESGGGLVQPGGSLRLSCAASGFTFRHYAMSWVRQAPGKGLEWVSLISGSGASTHYADSVKGRFTISRDNSENMLYLQMNSLRAEDTAVYYCAKDSLAVAGSEYFQHWGQGTLVTVSS VL: SYVLTQAPSVSVAPGQTARITCGGNYFGGKSVHWYQQRPGQAPVLVVYDDSDRPHGIPERFSGSKSGNTATLAISRVEAGDEAAYYCQVYDTSSDHWVFGGGTKLTVL |
| 9.7 | 51.6 | 5.33 | – | – | – | 3.2 H2-10 × L2-5 (antibody, V domains shown, Histidine mutant of 3.2) VH: EVQLLESGGGLVQPGGSLRLSCAASGFTFRHYAMSWVRQAPGKGLEWVSLISGSGASTHYADSVKGRFTISRDNSENMLYLQMNSLRAEDTAVYYCAKDSLAVAGSEYFQHWGQGTLVTVSS VL: SYVLTQAPSVSVAPGQTARITCGGNYFGGKSVHWYQQRPGQAPVLVVYDDSDHPSGIPERFSGSKSGNTATLAISRVEAGDEAAYYCQVYDTSSDHWVFGGGTKLTVL |
| 12.8 | 52 | 4.05 | – | – | – | 3.2 H2-10 × L1-7 (antibody, V domains shown, Histidine mutant of 3.2) VH: EVQLLESGGGLVQPGGSLRLSCAASGFTFRHYAMSWVRQAPGKGLEWVSLISGSGASTHYADSVKGRFTISRDNSENMLYLQMNSLRAEDTAVYYCAKDSLAVAGSEYFQHWGQGTLVTVSS VL: SYVLTQAPSVSVAPGQTARITCGGNYFGHKSVHWYQQRPGQAPVLVVYDDSDRPSGIPERFSGSKSGNTATLAISRVEAGDEAAYYCQVYDTSSDHWVFGGGTKLTVL |
| 5.8 | 81.3 | 13.9 | – | – | – | 3.2 H2-10 × L2-1 (antibody, V domains shown, Histidine mutant of 3.2) VH: EVQLLESGGGLVQPGGSLRLSCAASGFTFRHYAMSWVRQAPGKGLEWVSLISGSGASTHYADSVKGRFTISRDNSENMLYLQMNSLRAEDTAVYYCAKDSLAVAGSEYFQHWGQGTLVTVSS VL: SYVLTQAPSVSVAPGQTARITCGGNYFGGKSVHWYQQRPGQAPVLVVYHDSDRPSGIPERFSGSKSGNTATLAISRVEAGDEAAYYCQVYDTSSDHWVFGGGTKLTVL |
| 8.1 | 46.2 | 5.69 | – | – | – | 3.2 H2-10 × L2-3 (antibody, V domains shown, Histidine mutant of 3.2) VH: EVQLLESGGGLVQPGGSLRLSCAASGFTFRHYAMSWVRQAPGKGLEWVSLISGSGASTHYADSVKGRFTISRDNSENMLYLQMNSLRAEDTAVYYCAKDSLAVAGSEYFQHWGQGTLVTVSS VL: SYVLTQAPSVSVAPGQTARITCGGNYFGGKSVHWYQQRPGQAPVLVVYDDHDRPSGIPERFSGSKSGNTATLAISRVEAGDEAAYYCQVYDTSSDHWVFGGGTKLTVL |
| 9.5 | 55.8 | 5.9 | 0.28 | 8.18e-05 | 293000 | 3.2 H2-10 × L1-4 (antibody, V domains shown, Histidine mutant of 3.2) VH: EVQLLESGGGLVQPGGSLRLSCAASGFTFRHYAMSWVRQAPGKGLEWVSLISGSGASTHYADSVKGRFTISRDNSENMLYLQMNSLRAEDTAVYYCAKDSLAVAGSEYFQHWGQGTLVTVSS VL: SYVLTQAPSVSVAPGQTARITCGGNHFGGKSVHWYQQRPGQAPVLVVYDDSDRPSGIPERFSGSKSGNTATLAISRVEAGDEAAYYCQVYDTSSDHWVFGGGTKLTVL |
| 10.4 | 51.8 | 5 | – | – | – | 3.2 H2-10 × L1-8 (antibody, V domains shown, Histidine mutant of 3.2) VH: EVQLLESGGGLVQPGGSLRLSCAASGFTFRHYAMSWVRQAPGKGLEWVSLISGSGASTHYADSVKGRFTISRDNSENMLYLQMNSLRAEDTAVYYCAKDSLAVAGSEYFQHWGQGTLVTVSS VL: SYVLTQAPSVSVAPGQTARITCGGNYFGGHSVHWYQQRPGQAPVLVVYDDSDRPSGIPERFSGSKSGNTATLAISRVEAGDEAAYYCQVYDTSSDHWVFGGGTKLTVL |
| 8.7 | 62.6 | 7.16 | – | – | – | 3.2 H2-10 × L3-11 (antibody, V domains shown, Histidine mutant of 3.2) VH: EVQLLESGGGLVQPGGSLRLSCAASGFTFRHYAMSWVRQAPGKGLEWVSLISGSGASTHYADSVKGRFTISRDNSENMLYLQMNSLRAEDTAVYYCAKDSLAVAGSEYFQHWGQGTLVTVSS VL: SYVLTQAPSVSVAPGQTARITCGGNYFGGKSVHWYQQRPGQAPVLVVYDDSDRPSGIPERFSGSKSGNTATLAISRVEAGDEAAYYCQVYDTSSDHWHFGGGTKLTVL |
| 7.2 | 90.7 | 12.6 | – | – | – | 3.2 H2-10 × L3-5 (antibody, V domains shown, Histidine mutant of 3.2) VH: EVQLLESGGGLVQPGGSLRLSCAASGFTFRHYAMSWVRQAPGKGLEWVSLISGSGASTHYADSVKGRFTISRDNSENMLYLQMNSLRAEDTAVYYCAKDSLAVAGSEYFQHWGQGTLVTVSS VL: SYVLTQAPSVSVAPGQTARITCGGNYFGGKSVHWYQQRPGQAPVLVVYDDSDRPSGIPERFSGSKSGNTATLAISRVEAGDEAAYYCQVYDHSSDHWVFGGGTKLTVL |
| 8.8 | 52.6 | 5.97 | – | – | – | 3.2 H2-10 × L2-6 (antibody, V domains shown, Histidine mutant of 3.2) VH: EVQLLESGGGLVQPGGSLRLSCAASGFTFRHYAMSWVRQAPGKGLEWVSLISGSGASTHYADSVKGRFTISRDNSENMLYLQMNSLRAEDTAVYYCAKDSLAVAGSEYFQHWGQGTLVTVSS VL: SYVLTQAPSVSVAPGQTARITCGGNYFGGKSVHWYQQRPGQAPVLVVYDDSDRHSGIPERFSGSKSGNTATLAISRVEAGDEAAYYCQVYDTSSDHWVFGGGTKLTVL |
| 6.2 | 82.8 | 13.3 | – | – | – | 3.2 H2-10 × L3-4 (antibody, V domains shown, Histidine mutant of 3.2) VH: EVQLLESGGGLVQPGGSLRLSCAASGFTFRHYAMSWVRQAPGKGLEWVSLISGSGASTHYADSVKGRFTISRDNSENMLYLQMNSLRAEDTAVYYCAKDSLAVAGSEYFQHWGQGTLVTVSS VL: SYVLTQAPSVSVAPGQTARITCGGNYFGGKSVHWYQQRPGQAPVLVVYDDSDRPSGIPERFSGSKSGNTATLAISRVEAGDEAAYYCQVYHTSSDHWVFGGGTKLTVL |
